These are literature values, as cited in publication PMC3907174.

As usually defined, the Kd is the equilibrium constant for the complex coming apart.

This data set has as its target RBP (Homo sapiens) (UniProt P02753).

As for STRA6 (from UniProt Q9BX79), the Kd is 50 nM.
